Laboratory results: patent US20120064176A1, “COMPOSITION FOR PREVENTING AND TREATING FATTY LIVER” (National Chung Hsing University, priority 2008, published 2012)

Test system: C57BL/6JNarl mice
Assay: Hepatic triglycerides after 7 weeks of lactoferrin, chromium or lactoferrin+chromium in high-fat-diet mice
Type: in vivo
Settings: 10 mice in each group
Description: Male C57BL/6JNarl mice (n=70) fed with high fat diet (high-fat Rodent TestDiet, PMI International Inc., MO, USA; 67% of calories provided by fat), age 8 weeks, are randomly divided into the control group, the low-dose lactoferrin group (NZMP lactoferrin, New Zealand, 40 mg/kg BW/day), the high-dose lactoferrin group (80 mg/kg BW/day), the low-dose chromium group (CrCl3·6H2O, Sigma, Cr^+3 40 μg/kg BW/day), the high dose chromium group (Cr^+3 80 μg/kg BW/day), the low-dose lactoferrin+chromium group (lactoferrin 40 mg/kg BW/day+Cr^+3 40 μg/kg BW/day), and the high-dose lactoferrin+chromium group (lactoferrin 80 mg/kg BW/day+Cr^+3 80 μg/kg BW/day) (10 mice in each group). After supplementation for 7 weeks, the C57BL/6JNarl mice are sacrificed and their livers are harvested. Then, the level of hepatic triglycerides is analyzed. […] However, no significant difference between the other groups is found.

B1: Lactoferrin: NZMP lactoferrin, New Zealand; a glycoprotein that is capable of combining with metal ions (protein, UniProt P24627 20-708, looked up)
Lactotransferrin: APRKNVRWCTISQPEWFKCRRWQWRMKKLGAPSITCVRRAFALECIRAIAEKKADAVTLDGGMVFEAGRDPYKLRPVAAEIYGTKESPQTHYYAVAVVKKGSNFQLDQLQGRKSCHTGLGRSAGWIIPMGILRPYLSWTESLEPLQGAVAKFFSASCVPCIDRQAYPNLCQLCKGEGENQCACSSREPYFGYSGAFKCLQDGAGDVAFVKETTVFENLPEKADRDQYELLCLNNSRAPVDAFKECHLAQVPSHAVVARSVDGKEDLIWKLLSKAQEKFGKNKSRSFQLFGSPPGQRDLLFKDSALGFLRIPSKVDSALYLGSRYLTTLKNLRETAEEVKARYTRVVWCAVGPEEQKKCQQWSQQSGQNVTCATASTTDDCIVLVLKGEADALNLDGGYIYTAGKCGLVPVLAENRKSSKHSSLDCVLRPTEGYLAVAVVKKANEGLTWNSLKDKKSCHTAVDRTAGWNIPMGLIVNQTGSCAFDEFFSQSCAPGADPKSRLCALCAGDDQGLDKCVPNSKEKYYGYTGAFRCLAEDVGDVAFVKNDTVWENTNGESTADWAKNLNREDFRLLCLDGTRKPVTEAQSCHLAVAPNHAVVSRSDRAAHVKQVLLHQQALFGKNGKNCPDKFCLFKSETKNLLFNDNTECLAKLGGRPTYEEYLGTEYVTAIANLKKCSTSPLLEACAFLTR
**Q.** Which results are given for B1?
**A.** Hepatic triglycerides, High-dose (High-dose: lactoferrin 80 mg/kg BW/day and/or Cr+3 80 μg/kg BW/day): 18.1 ± 7.2 μ mol/g liver; Hepatic triglycerides, Low-dose (Low-dose: lactoferrin 40 mg/kg BW/day and/or Cr+3 40 μg/kg BW/day): 18.4 ± 6.0 μ mol/g liver
